# B1: ZER1 (parent)
# chain: FDGPEAWGVCEPQREEVEERMWAA
# Variants of: B1
# Assay: protein stability index of a GFP-peptide fusion (GPS, HEK-293T) (PSI 1-6); higher = more stable
# Details: c terminus: a fixed tail appended
# 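Note: lentivirally expressed fusions sorted by FACS into six bins by GFP to DsRed ratio, PSI derived from sequencing read proportions per bin multiplied by bin number.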
row,Variant,protein stability index
1,FDGPEAWGVCEPQRKEVEERMWAA [E15K],2.92
2,FDGPEAWGVCEPQRTEVEERMWAA [E15T],2.62
3,FDGPEAWGVCEPQRIEVEERMWAA [E15I],2.02
4,FDGPEAWGVCEPQRLEVEERMWAA [E15L],2.2
5,FDGPEAWGVCEPQRHEVEERMWAA [E15H],1.79
6,FDGPEAWGVCEPQRMEVEERMWAA [E15M],2.34
7,FDGPEAWGVCEPVREEVEERMWAA [Q13V],3.23
8,FDGPEAWGVCEPNREEVEERMWAA [Q13N],2.94
9,FDGPEAWGVCEPHREEVEERMWAA [Q13H],2.44
10,FDGPEAWGVCEPGREEVEERMWAA [Q13G],2.75
11,FDGPEAWGVCEPYREEVEERMWAA [Q13Y],2.39
12,FDGPEAWGVCEPTREEVEERMWAA [Q13T],2.43
13,FDGPEAWGVCEPLREEVEERMWAA [Q13L],2.68
14,FDGPEAWGVCEPAREEVEERMWAA [Q13A],2.72
15,FDGPEAWGVCEPMREEVEERMWAA [Q13M],2.46
16,FDGPEAWGVCEPDREEVEERMWAA [Q13D],2.92
17,FDGPEAWGVCEPEREEVEERMWAA [Q13E],2.86
18,FDGPEAWGVCEPKREEVEERMWAA [Q13K],2.91
19,FDGPEAWGVCEPFREEVEERMWAA [Q13F],2.31
20,FDGPEAWGVCEPIREEVEERMWAA [Q13I],2.76
21,FDGPEAWGVCEPSREEVEERMWAA [Q13S],2.71
22,FDGPEAWGVCEPRREEVEERMWAA [Q13R],2.21
23,FDGPEAWGVCEPWREEVEERMWAA [Q13W],2.17
24,FDGPEAWGVCEPQREEAEERMWAA [V17A],2.27

row,Variant,protein stability index
1,FDGPEAWGVCEPQREMVEERMWAA [E16M],1.99
2,FDGPEAWGVCEPQRENVEERMWAA [E16N],2.37
3,FDGPEAWGVCEPQRELVEERMWAA [E16L],1.62
4,FDGPEAWGVCEPQREIVEERMWAA [E16I],2.34
5,FDGPEAWGVCEPQREFVEERMWAA [E16F],2.62
6,FDGPEAWGVCEPQREAVEERMWAA [E16A],2.33
7,FDGPEAWGVCEPQREGVEERMWAA [E16G],2.04
8,FDGPEAWGVCEPQRESVEERMWAA [E16S],2.25
9,FDGPEAWGVCEPQREDVEERMWAA [E16D],2.14
10,FDGPEAWGVCEPQRECVEERMWAA [E16C],2.24
11,FDGPEAWGVCEPQREPVEERMWAA [E16P],2.04
12,FDGPEAWGVCEPQREYVEERMWAA [E16Y],2.11
13,FDGPEAWGVCEPQRERVEERMWAA [E16R],2.16
14,FDGPEAWGVCEPQRETVEERMWAA [E16T],2.72
15,FDGPEAWGVCEPQREWVEERMWAA [E16W],1.63
16,FDGPEAWGVCEPQREHVEERMWAA [E16H],2.66
17,FDGPEAWGVCEPQREVVEERMWAA [E16V],2.02
18,FDGPEAWGVCEPQREKVEERMWAA [E16K],1.98
19,FDGPEAMGVCEPQREEVEERMWAA [W7M],3.64
20,FDGPEADGVCEPQREEVEERMWAA [W7D],5.1
21,FDGPEASGVCEPQREEVEERMWAA [W7S],4.92
22,FDGPEATGVCEPQREEVEERMWAA [W7T],4.69
23,FDGPEAIGVCEPQREEVEERMWAA [W7I],4.89
24,FDGPEAEGVCEPQREEVEERMWAA [W7E],4.54

row,Variant,protein stability index
1,FDGPEANGVCEPQREEVEERMWAA [W7N],4.58
2,FDGPEAGGVCEPQREEVEERMWAA [W7G],4.94
3,FDGPEAHGVCEPQREEVEERMWAA [W7H],4.63
4,FDGPEAAGVCEPQREEVEERMWAA [W7A],4.29
5,FDGPEAYGVCEPQREEVEERMWAA [W7Y],3.98
6,FDGPEARGVCEPQREEVEERMWAA [W7R],3.97
7,FDGPEAQGVCEPQREEVEERMWAA [W7Q],5.22
8,FDGPEAVGVCEPQREEVEERMWAA [W7V],4.98
9,FDGPEAKGVCEPQREEVEERMWAA [W7K],4.81
10,FDGPEACGVCEPQREEVEERMWAA [W7C],4.66
11,FDGPEAPGVCEPQREEVEERMWAA [W7P],4.52
12,FDGPEAWGVCESQREEVEERMWAA [P12S],3.14
13,FDGPEAWGVCEMQREEVEERMWAA [P12M],3.3
14,FDGPEAWGVCEFQREEVEERMWAA [P12F],2.93
15,FDGPEAWGVCEKQREEVEERMWAA [P12K],2.9
16,FDGPEAWGVCEYQREEVEERMWAA [P12Y],2.64
17,FDGPEAWGVCERQREEVEERMWAA [P12R],3.53
18,FDGPEAWGVCEIQREEVEERMWAA [P12I],2.31
19,FDGPEAWGVCETQREEVEERMWAA [P12T],3.17
20,FDGPEAWGVCEDQREEVEERMWAA [P12D],2.88
21,FDGPEAWGVCEQQREEVEERMWAA [P12Q],3.22
22,FDGPEAWGVCEVQREEVEERMWAA [P12V],2.47
23,FDGPEAWGVCEWQREEVEERMWAA [P12W],3.81
24,FDGPEAWGVCEEQREEVEERMWAA [P12E],3.17

row,Variant,protein stability index
1,FDGPEAWGVCELQREEVEERMWAA [P12L],2.47
2,FDGPEAWGVCEHQREEVEERMWAA [P12H],3.17
3,FDGPEAWGVCECQREEVEERMWAA [P12C],2.33
4,FDGPEAWGVCEGQREEVEERMWAA [P12G],2.69
5,FDGPEAWGVCEPQNEEVEERMWAA [R14N],2.86
6,FDGPEAWGVCEPQLEEVEERMWAA [R14L],1.8
7,FDGPEAWGVCEPQCEEVEERMWAA [R14C],2.25
8,FDGPEAWGVCEPQWEEVEERMWAA [R14W],2.52
9,FDGPEAWGVCEPQAEEVEERMWAA [R14A],2.18
10,FDGPEAWGVCEPQGEEVEERMWAA [R14G],3.36
11,FDGPEAWGVCEPQVEEVEERMWAA [R14V],2.16
12,FDGPEAWGVCEPQEEEVEERMWAA [R14E],3.16
13,FDGPEAWGVCEPQYEEVEERMWAA [R14Y],2.46
14,FDGPEAWGVCEPQMEEVEERMWAA [R14M],3.08
15,FDGPEAWGVCEPQDEEVEERMWAA [R14D],2.88
16,FDGPEAWGVCEPQQEEVEERMWAA [R14Q],2.09
17,FDGPEAWGVCEPQIEEVEERMWAA [R14I],2.97
18,FDGPEAWGVCEPQTEEVEERMWAA [R14T],2.54
19,FDGPEAWGVCEPQHEEVEERMWAA [R14H],2.31
20,FDGPEAWGVCEPQSEEVEERMWAA [R14S],2.56
21,FDGPEAWGVCEPQFEEVEERMWAA [R14F],2.74
22,FDGPEAWGVCEPQPEEVEERMWAA [R14P],3.26
